The values below come from PMC10940162.

Assay [1] concerns the target porcine brain tubulin (microtubules) (porcine). Briefly: microtubule-capping assay with TIRF microscopy; Taxol-, docetaxel- or GMPCPP-stabilized microtubules held on the coverslip through biotin–neutravidin; γ-TuC (GCP3–GFP) in solution; 5 µM tubulin, 50 mM KCl, MRB80, 30 °C; capped if γ-TuC stayed bound for at least 2 min.
Assay [2] has the same target.
The target is the same in assay [3]. This is another data set of the same source.
The target is the same in assay [4]. Briefly: in vitro reconstitution with TIRF microscopy; as a7 with 5 nM SNAP–AF647–CAMSAP3 and 200 nM chTOG–mCherry (not premixed).
The target is the same in assay [5]. Nature of the assay: in vitro reconstitution with TIRF microscopy; as a7 with 5 nM SNAP–AF647–CAMSAP3 and 30 nM mCherry–CLASP2 (pre-incubated with γ-TuC).
The target is the same in assay [6]. Briefly: in vitro reconstitution with TIRF microscopy; as a7 with 5 nM SNAP–AF647–CAMSAP3 and 30 nM mCherry–CDK5RAP2 (pre-incubated with γ-TuC).
Assay [7] shares this target. Nature of the assay: in vitro reconstitution with TIRF microscopy; microtubules nucleated from and anchored at γ-TuC (GCP3–GFP) held by anti-GFP nanobody; 25 µM tubulin, 80 mM KCl, MRB80, 30 °C; 5 nM SNAP–AF647–CAMSAP3, 5 nM SNAP–AF647–CAMSAP1 or 40 nM mCherry–CAMSAP2; scored over 10 min.

“γ-tubulin-containing complexes (complete and incomplete γ-TuRC) purified using GCP3–GFP–SII (from UniProt Q96CW5 1-907; Q9BSJ2 1-902; Q9UGJ1 1-667; Q96RT8 1-1024; Q96RT7 1-1819; P23258 1-451)” registered a capping efficiency (percent of minus ends capped by γ-TuC) in assay [1] of 30 to 60%.

B1: SNAP–AF647–CAMSAP3 (natural protein)
chain: MVEAAPAGSGPLRRTFLVPEIKSLDQYDFSRAKAAASLAWVLRAAFGGAEHVPPELWEPFYTDQYAQEHVKPPVTRLLLSAELYCRAWRQALPQLEPSPSPSALLALLARRGTVPSLPEHPVREADLKHQPILMGAHLAVIDALMVAFSFEWTKTLPGPLALSSLEHKLLFWVDTTVRRLQEKTEQEAAQRASPAAPLDGASPAQPSIRYRKDRAIARRAPCFPNVTTLQDLASGAALAATIHCYCPQLLRLEEVCLKDPMSVADSLYNLQLVQDFCASHLPRGCPLSLEDLLYVPPPLKVNLVVLLAEMYMCFEVLKPDFVQAKDLPDGHAVSPRNTETVPSQNNSGSSSPVFNFRHPLLSPGGPQSPLRGSTGSLKSSPSMSHMEALGKAWNRQLSRPLSQAVSFSTPFGLDSDVDVVMGDPVLLRSVSSDSLGPPRPVSTSSRNSAQPAPESGDLPTIEEALQIIHSAEPRLLPDGAADGSFYLHSPEGLSKPPLSPYPPEGASKPLSDRLNKAPIYISHPENPSKSSPCSTGEILKPPPPSEGSPKAVASSPAANNSEVKMTSFAERKKQLVKAEAESGLGSPTSTPVAPEALSSEMSELGARLEEKRRAIEAQKRRIEAIFAKHRQRLGKSAFLQVQPREAAGEAEEEAELGSVPGGERPAGEGQGEPSLRHKSVTFSPDLGPVPPEGLGDYNRAVSKLSAALSSLQRDMQRLTDQQQRLLAPPEAPGPAPPPAAWVIPGPATGPKAASPSPARRAPAARRSPGPGPSPTPRSPKHARPAELKLAPLTRVLTPPHDVDSLPHLRKFSPSQVPVQTRSSILLSEGTPPEEPTTKPALIEIPLASLGEPAADEEGDGSPPGAEDSLEEEASSEGEPRSGLGFFYKDEDKPEDEMAQKRASLLERQQRRVEEARRRKQWQEAEKEQKREEAARLAQEAPGLAFTTPVVASAAPVATLAPTTRAMAPAEEEVGPRRGDFTRLEYERRAQLKLMDDLDKVLRPRASGTGGPGRGGRRATRPRSGCCDDSALARSPARGLLGSRLSKVYSQSTLSLSTVANEAPNNLGVKRPTSRAPSPSGLMSPSRLPGSRERDWENGSNASSPASVPEYTGPRLYKEPSAKSNKFIIHNALSHCCLAGKVNEPQKNRILEEIEKSKANHFLILFRDSSCQFRALYTLSGETEELSRLAGYGPRTVTPAMVEGIYKYNSDRKRFTQIPAKTMSMSVDAFTIQGHLWQSKKPTTPKKGGGTPK
modifications: Alexa Fluor 647 dye on the SNAP tag
B1: in assay [2], the percentage of microtubules released from γ-TuCs with SNAP–AF647–CAMSAP3 was 15%. In addition, the γ-TuC displacement frequency (microtubules released among γ-TuC-anchored minus ends colocalizing with the CAMSAP) in assay [3] amounted to 40%. Further, the percent of γ-TuC-nucleated microtubules with CAMSAP at the minus end in assay [4] turned out to be 25%; in assay [5], 35%; in assay [6] it was 3%; in assay [7], 30%.
